Data on three molecules can be found in patent US20260167721A1 (ABLEXIS, published 2026).

For test [1], the target named is T1, human CD3 (on human Pan-T cells or donor PBMC) (human, UniProt P07766 23-207; P04234 22-171; P09693 23-182; P20963 22-164). The experiment in a line: cell-based or functional assay.
Test [2] has as its target T1, human CD3 (on human Pan-T cells or …). In words: cell-based or functional assay. This is another data set of the same source.

T1 sequence (P07766 23-207, chain 1 of 4): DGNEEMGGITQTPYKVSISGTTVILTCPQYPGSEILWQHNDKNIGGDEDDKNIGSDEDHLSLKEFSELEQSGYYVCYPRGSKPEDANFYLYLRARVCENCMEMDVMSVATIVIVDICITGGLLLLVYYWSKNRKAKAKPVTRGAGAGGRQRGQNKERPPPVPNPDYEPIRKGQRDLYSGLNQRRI
T1 sequence (P04234 22-171, chain 2 of 4): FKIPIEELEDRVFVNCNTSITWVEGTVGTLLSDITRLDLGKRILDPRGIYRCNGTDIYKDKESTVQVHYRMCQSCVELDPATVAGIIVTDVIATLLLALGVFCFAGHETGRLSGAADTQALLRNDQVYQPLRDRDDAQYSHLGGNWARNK
T1 sequence (P09693 23-182, chain 3 of 4): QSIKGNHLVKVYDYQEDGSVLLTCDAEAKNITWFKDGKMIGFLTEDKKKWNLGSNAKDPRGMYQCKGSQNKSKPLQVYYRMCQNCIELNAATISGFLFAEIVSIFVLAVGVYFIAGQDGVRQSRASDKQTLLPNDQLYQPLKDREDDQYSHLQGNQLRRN
T1 sequence (P20963 22-164, chain 4 of 4): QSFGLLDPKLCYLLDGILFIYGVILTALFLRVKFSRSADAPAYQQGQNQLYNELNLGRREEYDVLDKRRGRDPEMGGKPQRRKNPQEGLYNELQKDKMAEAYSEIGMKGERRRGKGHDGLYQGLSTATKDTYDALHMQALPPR

B1: CD3 × CD33-BspAb45 (bispecific antibody)
chain 1: EVQLVESGGGLVQPGGSLRLSCAASGFTFSRYSMNWVRQAPGKCLEWVSYISSSSSSIYYADSVKGRFTISRDNAKNSLYLQMNSLRDEDTAVYYCARDRRATLDYWGQGTLVTVSSGGGGSGGGGSGGGGSGGGGSNFMLTQPHSVSESPGKTVTISCTRSSGSIASNYVQWYQQRPGSSPTTVIYEDNQRPSGVPDRFSGSIDSSSNSASLTISGLKTEDEADYYCQSYDSSNHVFGCGTKLTVLDKTHTCPPCPAPEFEGGPSVFLFPPKPKDTLMISRTPEVTCVVVDVSHEDPEVKFNWYVDGVEVHNAKTKPREEQYNSTYRVVSVLTVLHQDWLNGKEYKCKVSNKALPASIEKTISKAKGQPREPQVYTLPPCREEMTKNQVSLWCLVKGFYPSDIAVEWESNGQPENNYKTTPPVLDSDGSFFLYSKLTVDKSRWQQGNVFSCSVMHEALHNHYTQKSLSLSPGK
chain 2: EVQLVQSGAEVKKPGSSVKVSCKASGYTITDSNIHWVRQAPGQSLEWIGYIYPYNGGTDYNQKFKNRATLTVDNPTNTAYMELSSLRSEDTAFYYCVNGNPWLAYWGQGTLVTVSSASTKGPSVFPLAPSSKSTSGGTAALGCLVKDYFPEPVTVSWNSGALTSGVHTFPAVLQSSGLYSLSSVVTVPSSSLGTQTYICNVNHKPSNTKVDKRVEPKSCDKTHTCPPCPAPEFEGGPSVFLFPPKPKDTLMISRTPEVTCVVVDVSHEDPEVKFNWYVDGVEVHNAKTKPREEQYNSTYRVVSVLTVLHQDWLNGKEYKCKVSNKALPASIEKTISKAKGQPREPQVCTLPPSREEMTKNQVSLSCAVKGFYPSDIAVEWESNGQPENNYKTTPPVLDSDGSFFLVSKLTVDKSRWQQGNVFSCSVMHEALHNRFTQKSLSLSPGK
chain 3: DIQLTQSPSTLSASVGDRVTITCRASESLDNYGIRFLTWFQQKPGKAPKLLMYAASNQGSGVPSRFSGSGSGTEFTLTISSLQPDDFATYYCQQTKEVPWSFGQGTKVEVKRTVAAPSVFIFPPSDEQLKSGTASVVCLLNNFYPREAKVQWKVDNALQSGNSQESVTEQDSKDSTYSLSSTLTLSKADYEKHKVYACEVTHQGLSSPVTKSFNRGEC
As to B1, in test [1], the “RTCC Assay, Donor 0, EC50” value is 30 pM; the “RTCC Assay, Donor 0, gMFI max” value amounted to 23300 gMFI; the “RTCC Assay, Donor 1, EC50” value turned out to be 4 pM; the “RTCC Assay, Donor 1, gMFI max” value came to 76100 gMFI. Further, in test [1], the “RTCC Assay, Donor 2, EC50” value was determined as 12 pM; the “RTCC Assay, Donor 2, gMFI max” value amounted to 55900 gMFI; the “RTCC Assay, Donor 3, EC50” value was 20 pM; the “RTCC Assay, Donor 3, gMFI max” value came to 86700 gMFI. Further, in test [2], the “Cytokine Release Assay (IFNγ), Donor 0, EC50” value worked out at 96 pM; the “Cytokine Release Assay (IFNγ), Donor 0, gMFI max” value was 1.39e+06 gMFI; the “Cytokine Release Assay (IFNγ), Donor 1, gMFI max” value was found to be 4630 gMFI; the “Cytokine Release Assay (IFNγ), Donor 2, EC50” value was 68.4 pM. Moreover, in test [2], the “Cytokine Release Assay (IFNγ), Donor 2, gMFI max” value is 26900 gMFI and the “Cytokine Release Assay (IFNγ), Donor 3, gMFI max” value worked out at 290000 gMFI.

B2: CD3 × CD33-BspAb52 (bispecific antibody)
chain 1: not shown
chain 2: EVQLVQSGAEVKKPGSSVKVSCKASGYTITDSNIHWVRQAPGQSLEWIGYIYPYNGGTDYNQKFKNRATLTVDNPTNTAYMELSSLRSEDTAFYYCVNGNPWLAYWGQGTLVTVSSASTKGPSVFPLAPSSKSTSGGTAALGCLVKDYFPEPVTVSWNSGALTSGVHTFPAVLQSSGLYSLSSVVTVPSSSLGTQTYICNVNHKPSNTKVDKRVEPKSCDKTHTCPPCPAPEFEGGPSVFLFPPKPKDTLMISRTPEVTCVVVDVSHEDPEVKFNWYVDGVEVHNAKTKPREEQYNSTYRVVSVLTVLHQDWLNGKEYKCKVSNKALPASIEKTISKAKGQPREPQVCTLPPSREEMTKNQVSLSCAVKGFYPSDIAVEWESNGQPENNYKTTPPVLDSDGSFFLVSKLTVDKSRWQQGNVFSCSVMHEALHNRFTQKSLSLSPGK
chain 3: DIQLTQSPSTLSASVGDRVTITCRASESLDNYGIRFLTWFQQKPGKAPKLLMYAASNQGSGVPSRFSGSGSGTEFTLTISSLQPDDFATYYCQQTKEVPWSFGQGTKVEVKRTVAAPSVFIFPPSDEQLKSGTASVVCLLNNFYPREAKVQWKVDNALQSGNSQESVTEQDSKDSTYSLSSTLTLSKADYEKHKVYACEVTHQGLSSPVTKSFNRGEC
In the case of B2, in test [1], the “RTCC Assay, Donor 0, EC50” value was found to be 5210 pM; the “RTCC Assay, Donor 0, gMFI max” value stood at 16200 gMFI; the “RTCC Assay, Donor 1, EC50” value was determined as 762 pM; the “RTCC Assay, Donor 1, gMFI max” value worked out at 57800 gMFI. For the same molecule, in test [1], the “RTCC Assay, Donor 2, EC50” value amounted to 2280 pM; the “RTCC Assay, Donor 2, gMFI max” value turned out to be 37700 gMFI; the “RTCC Assay, Donor 3, EC50” value came out at 7830 pM; the “RTCC Assay, Donor 3, gMFI max” value turned out to be 42700 gMFI. In test [2], the “Cytokine Release Assay (IFNγ), Donor 0, gMFI max” value came to 6350 gMFI; the “Cytokine Release Assay (IFNγ), Donor 1, gMFI max” value is 4220 gMFI; the “Cytokine Release Assay (IFNγ), Donor 2, gMFI max” value was 4670 gMFI; the “Cytokine Release Assay (IFNγ), Donor 3, EC50” value was 25400 pM. For the same molecule, the “Cytokine Release Assay (IFNγ), Donor 3, gMFI max” value in test [2] came out at 8060 gMFI.

B3: CD3 × CD33-BspAb51 (bispecific antibody)
chain 1: not shown
chain 2: EVQLVQSGAEVKKPGSSVKVSCKASGYTITDSNIHWVRQAPGQSLEWIGYIYPYNGGTDYNQKFKNRATLTVDNPTNTAYMELSSLRSEDTAFYYCVNGNPWLAYWGQGTLVTVSSASTKGPSVFPLAPSSKSTSGGTAALGCLVKDYFPEPVTVSWNSGALTSGVHTFPAVLQSSGLYSLSSVVTVPSSSLGTQTYICNVNHKPSNTKVDKRVEPKSCDKTHTCPPCPAPEFEGGPSVFLFPPKPKDTLMISRTPEVTCVVVDVSHEDPEVKFNWYVDGVEVHNAKTKPREEQYNSTYRVVSVLTVLHQDWLNGKEYKCKVSNKALPASIEKTISKAKGQPREPQVCTLPPSREEMTKNQVSLSCAVKGFYPSDIAVEWESNGQPENNYKTTPPVLDSDGSFFLVSKLTVDKSRWQQGNVFSCSVMHEALHNRFTQKSLSLSPGK
chain 3: DIQLTQSPSTLSASVGDRVTITCRASESLDNYGIRFLTWFQQKPGKAPKLLMYAASNQGSGVPSRFSGSGSGTEFTLTISSLQPDDFATYYCQQTKEVPWSFGQGTKVEVKRTVAAPSVFIFPPSDEQLKSGTASVVCLLNNFYPREAKVQWKVDNALQSGNSQESVTEQDSKDSTYSLSSTLTLSKADYEKHKVYACEVTHQGLSSPVTKSFNRGEC
Turning to B3, in test [1], the “RTCC Assay, Donor 0, EC50” value was 200 pM; the “RTCC Assay, Donor 0, gMFI max” value is 28400 gMFI; the “RTCC Assay, Donor 1, EC50” value was 36 pM; the “RTCC Assay, Donor 1, gMFI max” value was found to be 66900 gMFI. In test [1], the “RTCC Assay, Donor 2, EC50” value turned out to be 50 pM; the “RTCC Assay, Donor 2, gMFI max” value amounted to 55800 gMFI; the “RTCC Assay, Donor 3, EC50” value was determined as 85 pM; the “RTCC Assay, Donor 3, gMFI max” value was found to be 80600 gMFI. Also, in test [2], the “Cytokine Release Assay (IFNγ), Donor 0, EC50” value came to 269 pM; the “Cytokine Release Assay (IFNγ), Donor 0, gMFI max” value is 1.34e+06 gMFI; the “Cytokine Release Assay (IFNγ), Donor 1, EC50” value was 15300 pM; the “Cytokine Release Assay (IFNγ), Donor 1, gMFI max” value came to 10800 gMFI. Besides, in test [2], the “Cytokine Release Assay (IFNγ), Donor 2, EC50” value came to 292 pM; the “Cytokine Release Assay (IFNγ), Donor 2, gMFI max” value was 30600 gMFI; the “Cytokine Release Assay (IFNγ), Donor 3, EC50” value is 214 pM; the “Cytokine Release Assay (IFNγ), Donor 3, gMFI max” value was found to be 355000 gMFI.
